Measurements as given in PMC10785756, “Hydrolysis of Antimicrobial Peptides by Extracellular Peptidases in Wastewater” (Environmental Science & Technology, 2023).

What was measured:
[1] = tested on: extracellular wastewater peptidases (pool I extracts from WWTP influents); assay: Absolute quantification of transformation products (TPs) formed during AMP incubation with wastewater extracts; assay type: in vitro ADME
Procedure: We thawed enzyme extracts and transferred 1.35 mL to 2 mL protein LoBind Eppendorf tubes. For autoclaved controls, extract aliquots of 1.5 mL were autoclaved for 20 min at 121 °C and 2 bar (Wolf Sanoclav LaS-MCS-J) and 1.35 mL of the autoclaved extracts were transferred into 2 mL protein LoBind Eppendorf tubes. We then spiked 150 μL of the AMP stock solution containing all AMPs at 10 μg/mL to the enzyme extracts or 1.35 mL of ultrapure water. […] Triplicate incubations were conducted for the autoclaved and active extracts with spiked AMP. After AMP spiking, we mixed the solutions by inverting the vials and incubating them at 20 °C under horizontal shaking at 300 rpm. To stop enzymatic reactions at pre-defined sampling time points (i.e., 2 min, 30 min, 1 h, 2 h, and 4 h), we transferred 150 μL of the incubation solution to 450 μL of acetonitrile containing 1% (v/v) formic acid in 1.5 mL protein LoBind Eppendorf tubes, mixed the resulting solution by inverting the tube and by horizontally shaking it at 300 rpm for 2 min at 20 °C, and centrifuged samples at 16,000g for 1 min. This protocol step was conducted according to Luther et al.[9] We then transferred the supernatant into a fresh 1.5 mL protein LoBind Eppendorf tube and dried it in a SpeedVac vacuum concentrator (30 °C for approximately 6 h). To resolubilize AMPs, we added 150 μL of water containing 5% (v/v) acetonitrile and 0.1% (v/v) formic acid, vortexed the samples, and centrifuged them for 10 s at 1000g at room temperature. We transferred the solution into QuanRecovery HPLC vials (Waters, 186009186) and stored the samples at −20 °C until analysis. For method development, selected (and indicated) samples were sonicated (Sonorex Super RK 106, Bandelin, max 480 W) for 5 min at different steps of the sample preparation process.
We analyzed AMPs using UHPLC (Thermo Scientific Dionex Ultimate 3000) equipped with a Waters XSelect PREMIER CSH C18 column (article number: 186009870) coupled to HRMS (Thermo QExactive). […] We used Skyline (version 20.2.0.343) to analyze the raw data. Criteria for parent peptides and hydrolysis product identification were set as described before:[31]m/z deviation <2 ppm, MS/MS fragments with m/z deviation <5 ppm, and reasonable chromatographic peak shape. For products, the peak area had to either increase throughout the incubation experiment or first increase and then decrease.
To learn about the enzymatic hydrolysis pathways of AMPs that we found to be rapidly biotransformed by enzymes in wastewater extracts, we predicted all products of single peptide bond hydrolysis reactions and screened our data-dependent high-resolution mass spectrometry data for experimental evidence in support of the predicted hydrolysis products. These analyses were conducted for the AMPs with the highest biotransformation extents (i.e., >0.5 in at least two WWTPs), namely, cecropin P1, omiganan, and R8. The following requirements for transformation products (TPs) were defined: at least three amino acids, peak area either increases during the incubation experiment or first increases and then decreases, peak area exceeds that in AMP-free enzyme extract by >5-fold and that in spiked autoclaved extracts by >6-fold, and mass deviation <2 ppm from the calculated exact mass. Mass lists, mass deviations, and retention times of all TPs can be found in Tables S6–S11. We further predicted TPs formed via exocleavage mechanisms (i.e., cleavage of one or two terminal amino acids simultaneously from the C- and N- terminus of the peptide) and screened for these TPs in the HRMS data.
For cecropin P1, we performed absolute quantification for TPs II, III, IV, V, VI, and X and found the highest concentrations for TP III. Up to 8.8% of spiked cecropin P1 is converted to TP III during incubations with wastewater extract. For TP II, the conversion ranges from 3.7–5.7%, and for TP V and VI, conversions range between 1.5 and 4.9 and 2.1 and 2.9%, respectively. […]

[2] = AMP incubation with autoclaved wastewater extracts (abiotic removal / adsorption control); assay type: physicochemical; settings: wastewater extracts (pool I influent)
Procedure: We thawed enzyme extracts and transferred 1.35 mL to 2 mL protein LoBind Eppendorf tubes. For autoclaved controls, extract aliquots of 1.5 mL were autoclaved for 20 min at 121 °C and 2 bar (Wolf Sanoclav LaS-MCS-J) and 1.35 mL of the autoclaved extracts were transferred into 2 mL protein LoBind Eppendorf tubes. We then spiked 150 μL of the AMP stock solution containing all AMPs at 10 μg/mL to the enzyme extracts or 1.35 mL of ultrapure water. […] Triplicate incubations were conducted for the autoclaved and active extracts with spiked AMP. After AMP spiking, we mixed the solutions by inverting the vials and incubating them at 20 °C under horizontal shaking at 300 rpm. […]
We analyzed AMPs using UHPLC (Thermo Scientific Dionex Ultimate 3000) equipped with a Waters XSelect PREMIER CSH C18 column (article number: 186009870) coupled to HRMS (Thermo QExactive). […]
In parallel to AMP incubations with active enzyme extracts, we conducted AMP incubations with autoclaved enzyme extracts to control for abiotic removal (e.g., due to adsorption to components in wastewater extracts). Autoclaving decreased the peptidase activity, as measured with the above-mentioned fluorogenic probe-based assay, of wastewater extracts to <3% of their original activity. […] We determined the AMP concentrations in unspiked enzyme extracts, which were below the limit of quantification (LOQ) for all AMPs in all WWTPs.

[3] = tested on: extracellular wastewater peptidases (pool I extracts from WWTP influents); assay: AMP incubation with active dissolved extracellular wastewater extracts (pool I) from WWTP influents; assay type: in vitro ADME
Procedure: We took samples from four municipal WWTPs in Austria ([…], and D). […] Where existing, we sampled the following five stages along the wastewater treatment process: influent, primary clarification tank, high-load and low-load aeration tanks, and effluent. […] We took 2 × 500 mL grab samples at each stage using a plastic beaker. We transferred the samples into 500 mL glass bottles leaving roughly one-third of the bottle empty, transported them to the lab, and pooled duplicate samples for further processing. Enzyme extraction started within 1 h after sampling. For total suspended solid (TSS) determination, we filtered 20 mL of each sample through a preweighed, dry GF/F Whatman glass microfiber filter (Sigma-Aldrich, WHA1825047) using a vacuum filtration system, dried the filters at 105 °C for 2 h, and determined the TSS contents from the weight difference. […] Otherwise, the extraction process was the same for pools I and II. All extractions were performed in triplicate, and extracts were kept on ice until further use. […] Triplicate incubations were conducted for the autoclaved and active extracts with spiked AMP. […] This protocol step was conducted according to Luther et al.[9] We then transferred the supernatant into a fresh 1.5 mL protein LoBind Eppendorf tube and dried it in a SpeedVac vacuum concentrator (30 °C for approximately 6 h). […] We transferred the solution into QuanRecovery HPLC vials (Waters, 186009186) and stored the samples at -20 °C until analysis. For method development, selected (and indicated) samples were sonicated (Sonorex Super RK 106, Bandelin, max 480 W) for 5 min at different steps of the sample preparation process. We analyzed AMPs using UHPLC (Thermo Scientific Dionex Ultimate 3000) equipped with a Waters XSelect PREMIER CSH C18 column (article number: 186009870) coupled to HRMS (Thermo QExactive). We injected 10 μL of each sample and applied a flow rate of 0.4 mL/min using the following eluent gradient (A: ultrapure water, B: […] Detection parameters were chosen as follows: […] We used Skyline (version 20.2.0.343) to analyze the raw data. […] For products, the peak area had to either increase throughout the incubation experiment or first increase and then decrease.

cecropin P1 (SWLSKTAKKLENSAKKRISEGIAIAIQGGPR; UniProt P14661 14-44, looked up) [AMP from the parasitic nematode Ascaris suum; linear peptide of canonical amino acids]
share of spiked AMP concentration that could be transformed into the selected TPs, considering the maximum sorption potential of each TP [1]: up to 31.6%
sum of quantified TPs as share of the initially spiked AMP concentration [1]: 22.8%
spiked AMP removed by sorption [2]: up to 70%
biotransformation extent (eq 1, from concentrations in active and autoclaved extracts) [3]: > 0.5
removal by biotransformation in active wastewater extracts (in words) [3]: rapidly removed to nonquantifiable concentrations
concentration after 30 min of incubation in active extracts ([3]; pool I influent extracts from all tested WWTPs, 20 °C, HPLC-HRMS): below the LOQ
detectable removal between first sampling time point and 30 min in active extracts ([3]; pool I influent extracts, WWTPs A-D, all AMPs spiked together (150 μL of 10 μg/mL into 1.35 mL extract), 20 °C, 300 rpm, first point 2 min, then 30 min, HPLC-HRMS, triplicate incubations, maximum over WWTPs, limited by LOQ): up to 85%
